Assay results: IntAct's records for PubMed 19258017

B1: Cellulose synthase A catalytic subunit 7 [UDP-forming] (Arabidopsis thaliana (Mouse-ear cress)), Q9SWW6 (parent)
chain: MEASAGLVAGSHNRNELVVIHNHEEPKPLKNLDGQFCEICGDQIGLTVEGDLFVACNECGFPACRPCYEYERREGTQNCPQCKTRYKRLRGSPRVEGDEDEEDIDDIEYEFNIEHEQDKHKHSAEAMLYGKMSYGRGPEDDENGRFPPVIAGGHSGEFPVGGGYGNGEHGLHKRVHPYPSSEAGSEGGWRERMDDWKLQHGNLGPEPDDDPEMGLIDEARQPLSRKVPIASSKINPYRMVIVARLVILAVFLRYRLLNPVHDALGLWLTSVICEIWFAVSWILDQFPKWFPIERETYLDRLSLRYEREGEPNMLAPVDVFVSTVDPLKEPPLVTSNTVLSILAMDYPVEKISCYVSDDGASMLTFESLSETAEFARKWVPFCKKFSIEPRAPEMYFTLKVDYLQDKVHPTFVKERRAMKREYEEFKVRINAQVAKASKVPLEGWIMQDGTPWPGNNTKDHPGMIQVFLGHSGGFDVEGHELPRLVYVSREKRPGFQHHKKAGAMNALVRVAGVLTNAPFMLNLDCDHYVNNSKAVREAMCFLMDPQIGKKVCYVQFPQRFDGIDTNDRYANRNTVFFDINMKGLDGIQGPVYVGTGCVFKRQALYGYEPPKGPKRPKMISCGCCPCFGRRRKNKKFSKNDMNGDVAALGGAEGDKEHLMSEMNFEKTFGQSSIFVTSTLMEEGGVPPSSSPAVLLKEAIHVISCGYEDKTEWGTELGWIYGSITEDILTGFKMHCRGWRSIYCMPKRPAFKGSAPINLSDRLNQVLRWALGSVEIFFSRHSPLWYGYKGGKLKWLERFAYANTTIYPFTSIPLLAYCILPAICLLTDKFIMPPISTFASLFFISLFMSIIVTGILELRWSGVSIEEWWRNEQFWVIGGISAHLFAVVQGLLKILAGIDTNFTVTSKATDDDDFGELYAFKWTTLLIPPTTVLIINIVGVVAGISDAINNGYQSWGPLFGKLFFSFWVIVHLYPFLKGLMGRQNRTPTIVVIWSVLLASIFSLLWVRIDPFVLKTKGPDTSKCGINC
partner: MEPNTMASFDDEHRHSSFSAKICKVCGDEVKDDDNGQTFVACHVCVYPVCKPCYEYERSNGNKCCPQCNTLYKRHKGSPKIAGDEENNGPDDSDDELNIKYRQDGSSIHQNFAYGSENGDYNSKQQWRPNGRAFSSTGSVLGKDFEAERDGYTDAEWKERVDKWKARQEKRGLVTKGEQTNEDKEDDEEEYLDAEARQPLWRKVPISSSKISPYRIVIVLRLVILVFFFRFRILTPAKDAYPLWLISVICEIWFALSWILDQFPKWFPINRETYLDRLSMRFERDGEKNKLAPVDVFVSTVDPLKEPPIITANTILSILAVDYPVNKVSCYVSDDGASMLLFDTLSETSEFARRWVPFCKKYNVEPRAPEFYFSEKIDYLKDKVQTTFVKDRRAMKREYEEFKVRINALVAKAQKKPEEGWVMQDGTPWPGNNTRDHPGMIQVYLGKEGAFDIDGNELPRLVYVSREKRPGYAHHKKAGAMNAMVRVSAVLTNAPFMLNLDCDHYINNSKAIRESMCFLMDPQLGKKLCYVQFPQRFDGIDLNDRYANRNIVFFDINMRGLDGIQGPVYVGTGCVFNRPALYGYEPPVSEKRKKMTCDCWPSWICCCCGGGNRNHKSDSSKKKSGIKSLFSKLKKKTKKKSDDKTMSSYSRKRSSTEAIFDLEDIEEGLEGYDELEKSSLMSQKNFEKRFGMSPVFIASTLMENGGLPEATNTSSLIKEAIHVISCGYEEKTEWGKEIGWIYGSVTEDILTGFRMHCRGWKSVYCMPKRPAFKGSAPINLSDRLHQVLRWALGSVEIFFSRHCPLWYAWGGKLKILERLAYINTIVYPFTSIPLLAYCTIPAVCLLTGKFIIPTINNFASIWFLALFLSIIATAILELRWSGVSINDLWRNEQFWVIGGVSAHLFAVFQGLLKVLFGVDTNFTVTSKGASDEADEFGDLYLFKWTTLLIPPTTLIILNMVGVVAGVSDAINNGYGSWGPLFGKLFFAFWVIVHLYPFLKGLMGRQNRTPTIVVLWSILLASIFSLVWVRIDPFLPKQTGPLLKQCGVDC
B2: Cellulose synthase A catalytic subunit 7 [UDP-forming] (Arabidopsis thaliana (Mouse-ear cress)), Q9SWW6 (parent)
chain: B1 chain
partner: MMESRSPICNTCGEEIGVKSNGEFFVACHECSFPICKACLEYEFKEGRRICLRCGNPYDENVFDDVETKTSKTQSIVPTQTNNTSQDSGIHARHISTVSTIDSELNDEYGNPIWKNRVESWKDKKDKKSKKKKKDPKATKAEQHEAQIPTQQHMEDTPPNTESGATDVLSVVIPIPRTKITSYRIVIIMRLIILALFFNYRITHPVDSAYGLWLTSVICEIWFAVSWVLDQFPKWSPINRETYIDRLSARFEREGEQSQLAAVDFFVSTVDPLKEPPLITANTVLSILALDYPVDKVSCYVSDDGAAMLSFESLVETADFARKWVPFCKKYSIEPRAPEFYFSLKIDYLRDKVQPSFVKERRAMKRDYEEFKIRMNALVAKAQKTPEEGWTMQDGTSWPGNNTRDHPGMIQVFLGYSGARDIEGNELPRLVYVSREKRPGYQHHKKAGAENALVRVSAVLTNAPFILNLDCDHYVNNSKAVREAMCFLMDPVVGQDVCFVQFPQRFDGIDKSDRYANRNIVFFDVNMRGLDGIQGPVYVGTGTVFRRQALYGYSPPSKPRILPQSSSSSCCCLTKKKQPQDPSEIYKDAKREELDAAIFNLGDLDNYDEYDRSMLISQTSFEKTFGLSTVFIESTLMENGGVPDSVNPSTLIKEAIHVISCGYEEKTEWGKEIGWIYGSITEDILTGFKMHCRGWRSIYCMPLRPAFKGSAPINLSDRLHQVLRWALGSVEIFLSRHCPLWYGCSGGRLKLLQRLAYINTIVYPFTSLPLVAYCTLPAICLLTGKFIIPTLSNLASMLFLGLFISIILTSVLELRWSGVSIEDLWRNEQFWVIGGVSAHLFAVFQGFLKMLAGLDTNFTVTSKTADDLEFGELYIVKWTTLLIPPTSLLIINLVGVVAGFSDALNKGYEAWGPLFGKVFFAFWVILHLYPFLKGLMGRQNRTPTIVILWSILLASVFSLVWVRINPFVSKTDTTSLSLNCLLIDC

Variants of: B1
Conditions: with cesa4_arath CESA4, Q84JA6

Variant | effect of a mutation on the interaction
C64A | decreasing interaction

Variants of: B1
Conditions: with cesa4_arath CESA4, Q84JA6
Remark: another data set of the same source

Variant | effect of a mutation on the interaction
C79A | decreasing interaction

Variants of: B1
Conditions: with cesa4_arath CESA4, Q84JA6
Remark: another data set of the same source

Variant | effect of a mutation on the interaction
C37A | decreasing interaction

Variants of: B2
Conditions: with cesa8_arath CESA8, Q8LPK5

Variant | effect of a mutation on the interaction
C79A | decreasing interaction

Variants of: B2
Conditions: with cesa8_arath CESA8, Q8LPK5
Remark: another data set of the same source

Variant | effect of a mutation on the interaction
C64A | decreasing interaction

Variants of: B2
Conditions: with cesa8_arath CESA8, Q8LPK5
Remark: another data set of the same source

Variant | effect of a mutation on the interaction
C56A | decreasing interaction

Variants of: B2
Conditions: with cesa8_arath CESA8, Q8LPK5
Remark: another data set of the same source

Variant | effect of a mutation on the interaction
C37A | decreasing interaction
